Data reported in patent US20090075304A1 (published 2009).

The binders below were run against T1, activated soluble HLA-A*0201 (assay: fluorescence polarization competition (PolyTest)).
T1 construct: MHC class I molecule that receives peptide in the fluorescence polarization assay (PolyTest); also called sHLA

Binding result, binds:
GVLPALPQV (also called GVL(47)) [GVLPALPQV, human chorionic gonadotropin-beta peptide 47-55]
VLQGVLPAL (also called VLQ(44)) [VLQGVLPAL, human chorionic gonadotropin-beta peptide 44-52]
TMTRVLQGV (also called TMT(40)) [TMTRVLQGV, human chorionic gonadotropin-beta peptide 40-48]
